The results in this text go back to US20250340613A1 (JOINT STOCK COMPANY BIOCAD, published 2025).

For assay [1], the target named is T1, extracellular domain of the human CSF1R protein (hCSF1R_His) (Homo sapiens, UniProt P07333 20-512).
T1 construct: range 20-512; Molecular weight 57.4 kDa; made in CHO cells; also called hCSF1_His; not shown: C-terminal His and FLAG tags
Put plainly: BLI Octet RED 384; antibody on ProA sensor, antigen 30 ug/ml (522.5 nM); response at end of association. Here is the method: (§1) Experimental study of nonspecific binding of bispecific chimeric antibodies to non-target antigens was performed on Forte Bio Octert RED 384. Protein A (ProA) biosensors (ForteBio) were immersed into a solution containing antibodies at a concentration of 10 μg/ml for 150 seconds to immobilize same. The baseline was recorded in a 1×KB solution for 30 seconds. The antibody-loaded sensors were then immersed into wells containing non-target antigens at a concentration of 30 μg/ml for 150 seconds. Complex dissociation was then recorded for 30 seconds.
(§2) The reference sensors went through all the steps as the sensors used to record analyte sensograms did, with the exception of the association step—at the association step, the sensors were immersed in a kinetic buffer solution without analyte (the reference sensor signals were measured in parallel with the recording of the main sensograms). The reference signal was subtracted from the signal received on sensors interacting with the analyte during the processing of sensograms.
(§3) Sensograms were processed using ForteBio Octet Data Analysisn 9.0 software. To report no non-specific interaction, the recorded signal level was checked at the end of the association step (the response parameter).
On the technique in general: Biolayer interferometry detects binding as a change in optical thickness at a sensor tip.

Assay [2] deals with T2, Macaca CSF1R_C-His, Macrophage colony-stimulating factor 1 receptor (Macaca mulatta) aa 20-513 (Macaca mulatta).
T2 construct: range 20-513
Put plainly: BLI Octet RED 384; antibody on ProA sensor, antigen 30 ug/ml (534.8 nM); response at end of association. Here is the method:
as §1, §2, §3

For assay [3], the target named is T3, extracellular domain of the human PD-1 protein (hPD1ex-H6F) (Homo sapiens, UniProt Q15116 21-170).
T3 construct: Molecular weight 20.6 kDa; made in CHO cells; also called hPDlex-H6F; not shown: C-terminal His and FLAG tags
T3 sequence (Q15116 21-170 limits assumed, form in doubt): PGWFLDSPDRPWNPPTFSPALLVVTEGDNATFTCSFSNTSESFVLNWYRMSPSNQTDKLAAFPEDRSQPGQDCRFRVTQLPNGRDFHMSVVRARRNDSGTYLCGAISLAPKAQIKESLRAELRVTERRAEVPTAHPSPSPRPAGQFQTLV
Nature of the assay: BLI Octet RED 384; antibody on ProA sensor, antigen 30 ug/ml (1456 nM); response at end of association. On the procedure: as §1, §2, §3

Assay [4] addresses T4, Her3-H6F, Receptor tyrosine-protein kinase erbB-3 (Homo sapiens) aa 21-643 (Homo sapiens, UniProt P21860 21-643).
T4 construct: not shown: His and FLAG tags implied by the name 'H6F'
Put plainly: BLI Octet RED 384; antibody on ProA sensor, antigen 30 ug/ml (420.8 nM); response at end of association. On the procedure: as §1, §2, §3

Assay [5] addresses T5, C-Avi-His-TEVs-HSA_hBCMA, Tumor necrosis factor receptor superfamily member 17 (Homo sapiens) aa 1-54 (Homo sapiens, UniProt Q02223 1-54).
T5 construct: range 1-54; not shown: Avi, His, TEV site and HSA parts as the name implies
T5 sequence (looked up): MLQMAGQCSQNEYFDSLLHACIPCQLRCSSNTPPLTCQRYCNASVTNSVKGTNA
Nature of the assay: BLI Octet RED 384; antibody on ProA sensor, antigen 30 ug/ml (391.2 nM); response at end of association. On the procedure:
as §1, §2, §3

In assay [6] the target is T6, hisOX40, Tumor necrosis factor receptor superfamily member 4 (Homo sapiens) aa 26-210 (Homo sapiens, UniProt P43489 26-210).
T6 construct: range 26-210; The tag is put first only because the name begins with His; not shown: His tag as the name implies
T6 sequence (looked up): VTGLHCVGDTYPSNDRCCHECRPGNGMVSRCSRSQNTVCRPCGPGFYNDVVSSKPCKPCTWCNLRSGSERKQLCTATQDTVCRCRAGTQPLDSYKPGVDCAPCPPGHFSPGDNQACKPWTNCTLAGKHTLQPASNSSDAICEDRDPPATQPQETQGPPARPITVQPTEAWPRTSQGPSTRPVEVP
Nature of the assay: BLI Octet RED 384; antibody on ProA sensor, antigen 30 ug/ml (1310 nM); response at end of association. On the procedure: as §1, §2, §3

Assay [7] has as its target T7, IL5R-His, Interleukin-5 receptor subunit alpha (Homo sapiens) aa 22-342 (Homo sapiens, UniProt Q01344 22-342).
T7 construct: not shown: His tag as the name implies
T7 sequence (looked up): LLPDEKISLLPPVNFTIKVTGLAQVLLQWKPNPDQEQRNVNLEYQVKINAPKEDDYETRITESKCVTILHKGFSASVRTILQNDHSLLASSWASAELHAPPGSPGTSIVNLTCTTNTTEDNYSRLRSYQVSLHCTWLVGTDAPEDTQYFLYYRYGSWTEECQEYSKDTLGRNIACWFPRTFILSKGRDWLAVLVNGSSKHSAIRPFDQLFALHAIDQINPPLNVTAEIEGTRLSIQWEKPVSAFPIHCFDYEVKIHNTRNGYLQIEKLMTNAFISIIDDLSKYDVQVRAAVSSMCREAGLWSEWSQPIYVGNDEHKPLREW
Nature of the assay: BLI Octet RED 384; antibody on ProA sensor, antigen 30 ug/ml (757.6 nM); response at end of association. On the procedure:
as §1, §2, §3

Assay [8] has as its target T8, hAng2_H6F, Angiopoietin-2 (Homo sapiens) aa 19-496 (Homo sapiens, UniProt O15123 19-496).
T8 construct: also called hAng-H6F; not shown: His and FLAG tags implied by the name 'H6F'
T8 sequence: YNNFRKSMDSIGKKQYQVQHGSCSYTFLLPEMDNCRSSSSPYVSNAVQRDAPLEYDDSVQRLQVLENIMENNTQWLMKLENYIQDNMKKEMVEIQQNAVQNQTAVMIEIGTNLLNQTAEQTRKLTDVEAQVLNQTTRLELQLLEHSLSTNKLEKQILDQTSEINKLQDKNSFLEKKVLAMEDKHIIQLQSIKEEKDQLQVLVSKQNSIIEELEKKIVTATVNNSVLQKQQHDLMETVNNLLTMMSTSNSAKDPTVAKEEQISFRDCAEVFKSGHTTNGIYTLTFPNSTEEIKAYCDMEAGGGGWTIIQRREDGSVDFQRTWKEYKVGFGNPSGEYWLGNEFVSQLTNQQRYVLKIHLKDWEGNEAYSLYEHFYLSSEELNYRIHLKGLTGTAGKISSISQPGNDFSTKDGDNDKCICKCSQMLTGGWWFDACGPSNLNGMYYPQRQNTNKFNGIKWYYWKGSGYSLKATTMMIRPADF
Put plainly: BLI Octet RED 384; antibody on ProA sensor, antigen 30 ug/ml (510.2 nM); response at end of association. On the procedure:
as §1, §2, §3

T1 sequence (P07333 20-512 limits assumed): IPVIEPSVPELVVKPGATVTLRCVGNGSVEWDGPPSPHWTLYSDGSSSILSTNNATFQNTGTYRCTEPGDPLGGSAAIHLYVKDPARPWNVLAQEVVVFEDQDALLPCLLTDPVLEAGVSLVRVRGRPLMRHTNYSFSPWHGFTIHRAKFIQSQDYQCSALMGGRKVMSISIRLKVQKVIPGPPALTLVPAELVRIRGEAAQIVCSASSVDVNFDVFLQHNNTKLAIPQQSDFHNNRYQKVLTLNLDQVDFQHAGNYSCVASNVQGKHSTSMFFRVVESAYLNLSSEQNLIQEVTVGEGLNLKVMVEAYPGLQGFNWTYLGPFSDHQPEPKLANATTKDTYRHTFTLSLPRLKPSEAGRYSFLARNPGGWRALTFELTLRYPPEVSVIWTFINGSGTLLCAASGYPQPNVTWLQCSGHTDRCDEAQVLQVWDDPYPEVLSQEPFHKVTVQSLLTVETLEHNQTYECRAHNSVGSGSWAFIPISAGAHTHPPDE
T4 sequence (P21860 21-643 limits assumed): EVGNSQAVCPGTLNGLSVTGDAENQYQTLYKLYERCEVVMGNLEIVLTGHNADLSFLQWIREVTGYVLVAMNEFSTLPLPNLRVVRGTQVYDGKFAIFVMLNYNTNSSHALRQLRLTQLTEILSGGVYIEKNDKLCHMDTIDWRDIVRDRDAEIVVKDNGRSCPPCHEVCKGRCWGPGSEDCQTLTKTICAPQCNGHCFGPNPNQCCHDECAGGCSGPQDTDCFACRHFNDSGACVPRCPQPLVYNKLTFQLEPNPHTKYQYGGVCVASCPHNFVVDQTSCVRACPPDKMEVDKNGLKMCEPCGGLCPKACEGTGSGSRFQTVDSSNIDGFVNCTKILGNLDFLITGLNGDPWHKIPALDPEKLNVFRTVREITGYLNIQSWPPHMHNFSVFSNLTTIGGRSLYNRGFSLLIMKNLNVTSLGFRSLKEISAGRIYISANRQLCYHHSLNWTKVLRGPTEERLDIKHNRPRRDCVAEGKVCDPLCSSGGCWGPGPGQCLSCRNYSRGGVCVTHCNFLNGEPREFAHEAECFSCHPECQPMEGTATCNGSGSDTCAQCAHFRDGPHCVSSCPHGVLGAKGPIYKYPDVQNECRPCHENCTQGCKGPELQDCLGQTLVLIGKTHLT

B1: 02-004, bivalent bispecific chimeric antibody that specifically binds to PD1 and CD20 (bispecific antibody, human IgG1, kappa, L234A L235A)
heavy 1: QVQLVQSGGGLVQPGGSLRLSCAASGFTFSSYWMYWVRQVPGKGLEWVSAIDTGGGRTYYADSVKGRFAISRVNAKNTMYLQMNSLRAEDTAVYYCARDEGGGTGWGVLKDWPYGLDAWGQGTLVTVSSASTKGPSVFPLAPSSKSTSGGTAALGCLVKDYFPEPVTVSWNSGALTSGVHTFPAVLQSSGLYSLSSVVTVPSSSLGTQTYICNVNHKPSNTKVDKRVEPKSCDKTHTCPPCPAPEAAGGPSVFLFPPKPKDTLYITREPEVTCVVVDVSHEDPEVKFNWYVDGVEVHNAKTKPREEQYNSTYRVVSVLTVLHQDWLNGKEYKCKVSNKALPAPIEKTISKAKGQPREPQVCTLPPSRDELTKNQVSLSCAVKGFYPSDIAVEWESNGQPENNYKTTPPVLDSDGSFFLVSKLTVDKSRWQQGNVFSCSVMHEALHNHYTQKSLSLSPGK
light 1: QPVLTQPLSVSVALGQTARITCGGNNIGSKNVHWYQQKPGQAPVLVIYRDSNRPSGIPERFSGSNSGNTATLTISRAQAGDEADYYCQVWDSSTAVFGTGTKLTVLQRTVAAPSVFIFPPSDEQLKSGTASVVCLLNNFYPREAKVQWKVDNALQSGNSQESVTEQDSKDSTYSLSSTLTLSKADYEKHKVYACEVTHQGLSSPVTKSFNRGEC
heavy 2: not shown
light 2: DIQMTQSPSSLSASVGDRVTITCRASSSVSYMHWYQQKPGKAPKPLIYAPSNLASGVPSRFSGSGSGTDFTLTISSLQPEDFATYYCQQWSFNPPTFGQGTKVEIKQRQVKPEAWLSSGPSPGPGRLQLVCHVSGFYPKPVWVMWMRGEQEQQGTQLGDILPNANWTWYLRATLDVADGEAAGLSCRVKHSSLEGQDIILYWRGSC
notes: Produced in CHO cells
For the molecule B1, the “Signal level (nm)” value stood at 0.0103 nm in assay [1]; 0.0236 nm in assay [2]; 0.35 nm in assay [3]; 0.0217 nm in assay [4]; 0.0108 nm in assay [5]; 0.0103 nm in assay [6]. Further, the figures for the “Signal level (nm)” value in assay [7] and in assay [8] were 0.0249 nm and 0.0212 nm, respectively.

B2: 02-009, bivalent bispecific chimeric antibody that specifically binds to CD20 and CSF1R (bispecific antibody, human IgG1, kappa, L234A L235A)
heavy 1: QVQLVESGGGLVRPGGSLRLSCAASEFTFDDYAMSWVRQAPGKGLEWVSAISWNGGSTNYADSVKGRFTISRDNAKNSLYLQMNSLRAEDTALYYCASTVEVAHRRLYKYLEVWGQGTLVTVSSASTKGPSVFPLAPSSKSTSGGTAALGCLVKDYFPEPVTVSWNSGALTSGVHTFPAVLQSSGLYSLSSVVTVPSSSLGTQTYICNVNHKPSNTKVDKRVEPKSCDKTHTCPPCPAPEAAGGPSVFLFPPKPKDTLYITREPEVTCVVVDVSHEDPEVKFNWYVDGVEVHNAKTKPREEQYNSTYRVVSVLTVLHQDWLNGKEYKCKVSNKALPAPIEKTISKAKGQPREPQVCTLPPSRDELTKNQVSLSCAVKGFYPSDIAVEWESNGQPENNYKTTPPVLDSDGSFFLVSKLTVDKSRWQQGNVFSCSVMHEALHNHYTQKSLSLSPGK
light 1: QAGLTQPPSVSVAPGQTARITCGGNNIGSKSVHWYQQKPGQAPVLVVYGDSDRPSGIPERFSGSNSGNTATLTISRVEAGDEADYYCQVWDISSDHVVFGGGTQLTVLRTVAAPSVFIFPPSDEQLKSGTASVVCLLNNFYPREAKVQWKVDNALQSGNSQESVTEQDSKDSTYSLSSTLTLSKADYEKHKVYACEVTHQGLSSPVTKSFNRGEC
heavy 2: not shown
light 2: DIQMTQSPSSLSASVGDRVTITCRASSSVSYMHWYQQKPGKAPKPLIYAPSNLASGVPSRFSGSGSGTDFTLTISSLQPEDFATYYCQQWSFNPPTFGQGTKVEIKQRQVKPEAWLSSGPSPGPGRLQLVCHVSGFYPKPVWVMWMRGEQEQQGTQLGDILPNANWTWYLRATLDVADGEAAGLSCRVKHSSLEGQDIILYWRGSC
notes: Produced in CHO cells
With B2, the “Signal level (nm)” value in assay [1] is 0.564 nm; in assay [2], 0.531 nm; in assay [3], -0.0059 nm; in assay [4] it was -0.0161 nm; in assay [5] it was -0.0154 nm; in assay [6], -0.0158 nm. Further, the “Signal level (nm)” value in assay [7] was -0.0064 nm; in assay [8] it was -0.0114 nm.

B3: 02-005, bivalent bispecific chimeric antibody that specifically binds to PD1 and CD20 (bispecific antibody, human IgG1, kappa, L234A L235A)
heavy 1: EVQLVESGGGLVQPGGSLRLSCAASGYTFTSYNMHWVRQAPGKGLEWVGAIYPGNGDTSYNQKFKGRFTISVDKSKNTLYLQMNSLRAEDTAVYYCARVVYYSNSYWYFDVWGQGTLVTVSSASTKGPSVFPLAPSSKSTSGGTAALGCLVKDYFPEPVTVSWNSGALTSGVHTFPAVLQSSGLYSLSSVVTVPSSSLGTQTYICNVNHKPSNTKVDKRVEPKSCDKTHTCPPCPAPEAAGGPSVFLFPPKPKDTLYITREPEVTCVVVDVSHEDPEVKFNWYVDGVEVHNAKTKPREEQYNSTYRVVSVLTVLHQDWLNGKEYKCKVSNKALPAPIEKTISKAKGQPREPQVCTLPPSRDELTKNQVSLSCAVKGFYPSDIAVEWESNGQPENNYKTTPPVLDSDGSFFLVSKLTVDKSRWQQGNVFSCSVMHEALHNHYTQKSLSLSPGK
light 1: DIQMTQSPSSLSASVGDRVTITCRASSSVSYMHWYQQKPGKAPKPLIYAPSNLASGVPSRFSGSGSGTDFTLTISSLQPEDFATYYCQQWSFNPPTFGQGTKVEIKRTVAAPSVFIFPPSDEQLKSGTASVVCLLNNFYPREAKVQWKVDNALQSGNSQESVTEQDSKDSTYSLSSTLTLSKADYEKHKVYACEVTHQGLSSPVTKSFNRGEC
heavy 2: not shown
light 2: QPVLTQPLSVSVALGQTARITCGGNNIGSKNVHWYQQKPGQAPVLVIYRDSNRPSGIPERFSGSNSGNTATLTISRAQAGDEADYYCQVWDSSTAVFGTGTKLTVLQQRQVKPEAWLSSGPSPGPGRLQLVCHVSGFYPKPVWVMWMRGEQEQQGTQLGDILPNANWTWYLRATLDVADGEAAGLSCRVKHSSLEGQDIILYWRGSC
notes: Produced in CHO cells
With B3, the “Signal level (nm)” value in assay [1] was 0.0034 nm; in assay [2], -0.0084 nm; in assay [3], 0.139 nm; in assay [4] it was -0.0128 nm; in assay [5] it was 0.0021 nm; in assay [6], -0.0169 nm. The “Signal level (nm)” value in assay [7] is 0.0225 nm; in assay [8], -0.0194 nm.
